From paper PMC10397247

What was measured:
4H492-bH = biological target: T1, 4H492-bH; assay: two-hybrid library CCNG1;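 note: natural log of median RNA to DNA barcode read ratio; higher means stronger binding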
T1 chain: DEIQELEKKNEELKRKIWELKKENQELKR

4H3057-bH = biological target: T2, 4H3057-bH; assay: two-hybrid library CCNG1;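 note: natural log of median RNA to DNA barcode read ratio; higher means stronger binding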
T2 chain: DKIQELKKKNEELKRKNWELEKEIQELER

4H741-bH = biological target: T3, 4H741-bH; assay: two-hybrid library CCNG1;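 note: natural log of median RNA to DNA barcode read ratio; higher means stronger binding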
T3 chain: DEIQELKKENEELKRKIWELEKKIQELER

4H3277-bH = biological target: T4, 4H3277-bH; assay: two-hybrid library CCNG1;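 note: natural log of median RNA to DNA barcode read ratio; higher means stronger binding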
T4 chain: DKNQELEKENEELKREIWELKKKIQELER

4H40-bH = biological target: T5, 4H40-bH; assay: two-hybrid library CCNG1;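 note: natural log of median RNA to DNA barcode read ratio; higher means stronger binding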
T5 chain: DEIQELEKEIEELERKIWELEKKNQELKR

4H2915-bH = biological target: T6, 4H2915-bH; assay: two-hybrid library CCNG1;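 note: natural log of median RNA to DNA barcode read ratio; higher means stronger binding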
T6 chain: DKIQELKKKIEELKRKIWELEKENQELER

4H477-bH = biological target: T7, 4H477-bH; assay: two-hybrid library CCNG1
T7 chain: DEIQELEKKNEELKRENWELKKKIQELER

4H319-bH = biological target: T8, 4H319-bH; assay: two-hybrid library CCNG1
T8 chain: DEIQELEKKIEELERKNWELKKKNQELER

4H348-bH = biological target: T9, 4H348-bH; assay: two-hybrid library CCNG1
T9 chain: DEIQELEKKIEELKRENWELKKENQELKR

4H2915-bN = biological target: T10, 4H2915-bN; assay: two-hybrid library CCNG1
T10 chain: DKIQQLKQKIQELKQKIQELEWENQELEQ

4H348-bN = biological target: T11, 4H348-bN; assay: two-hybrid library CCNG1
T11 chain: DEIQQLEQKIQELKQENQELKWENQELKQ

4H2839-bN = biological target: T12, 4H2839-bN; assay: two-hybrid library CCNG1
T12 chain: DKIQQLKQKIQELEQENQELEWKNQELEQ

4H492-bN = biological target: T13, 4H492-bN; assay: two-hybrid library CCNG1
T13 chain: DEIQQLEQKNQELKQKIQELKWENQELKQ

4H741-bN = biological target: T14, 4H741-bN; assay: two-hybrid library CCNG1
T14 chain: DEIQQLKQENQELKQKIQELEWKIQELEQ

4H477-bN = biological target: T15, 4H477-bN; assay: two-hybrid library CCNG1
T15 chain: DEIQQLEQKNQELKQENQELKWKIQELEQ

4H3057-bN = biological target: T16, 4H3057-bN; assay: two-hybrid library CCNG1
T16 chain: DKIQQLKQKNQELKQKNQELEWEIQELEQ

4H3277-bN = biological target: T17, 4H3277-bN; assay: two-hybrid library CCNG1
T17 chain: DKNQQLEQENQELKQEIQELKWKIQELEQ

4H40-bN = biological target: T18, 4H40-bN; assay: two-hybrid library CCNG1
T18 chain: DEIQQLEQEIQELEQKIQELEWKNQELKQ

4H319-bN = biological target: T19, 4H319-bN; assay: two-hybrid library CCNG1
T19 chain: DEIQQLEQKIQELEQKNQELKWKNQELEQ

4H3605-AA = biological target: T20, 4H3605-AA; assay: two-hybrid library CCmax; settings: mean of both orientations
T20 chain: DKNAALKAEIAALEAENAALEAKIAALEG

4H2726-AA = biological target: T21, 4H2726-AA; assay: two-hybrid library CCmax
T21 chain: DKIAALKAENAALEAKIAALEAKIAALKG

4H3922-AA = biological target: T22, 4H3922-AA; assay: two-hybrid library CCmax; settings: mean of both orientations
T22 chain: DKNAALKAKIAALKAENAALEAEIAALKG

4H3625-AA = biological target: T23, 4H3625-AA; assay: two-hybrid library CCmax; settings: mean of both orientations
T23 chain: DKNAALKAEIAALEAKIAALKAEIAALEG

4H2935-AA = biological target: T24, 4H2935-AA; assay: two-hybrid library CCmax; settings: mean of both orientations
T24 chain: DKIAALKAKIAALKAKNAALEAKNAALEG

4H4033-AA = biological target: T25, 4H4033-AA; assay: two-hybrid library CCmax; settings: mean of both orientations
T25 chain: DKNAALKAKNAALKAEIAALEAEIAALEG

4H3664-AA = biological target: T26, 4H3664-AA; assay: two-hybrid library CCmax; settings: mean of both orientations
T26 chain: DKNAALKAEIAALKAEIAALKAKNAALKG

4H662-AA = biological target: T27, 4H662-AA; assay: two-hybrid library CCmax; settings: mean of both orientations
T27 chain: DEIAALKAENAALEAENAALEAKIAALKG

4H481-AA = biological target: T28, 4H481-AA; assay: two-hybrid library CCmax; settings: mean of both orientations
T28 chain: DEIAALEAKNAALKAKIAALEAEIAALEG

4H55-AA = biological target: T29, 4H55-AA; assay: two-hybrid library CCmax; settings: mean of both orientations
T29 chain: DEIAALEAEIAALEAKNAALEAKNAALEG

4H369-AA = biological target: T30, 4H369-AA; assay: two-hybrid library CCmax; settings: mean of both orientations
T30 chain: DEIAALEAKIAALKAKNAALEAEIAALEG

4H327-AA = biological target: T31, 4H327-AA; assay: two-hybrid library CCmax
T31 chain: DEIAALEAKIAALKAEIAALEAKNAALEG

4H451-AA = biological target: T32, 4H451-AA; assay: two-hybrid library CCmax; settings: mean of both orientations
T32 chain: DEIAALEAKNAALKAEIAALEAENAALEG

4H43-AA = biological target: T33, 4H43-AA; assay: two-hybrid library CCmax; settings: mean of both orientations
T33 chain: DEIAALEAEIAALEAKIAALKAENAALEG

4H_GCN4 = assay: two-hybrid library CCmax
4H3905-AA = biological target: T34, 4H3905-AA; assay: two-hybrid library CCmax; settings: mean of both orientations
T34 chain: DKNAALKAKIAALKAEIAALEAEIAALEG

O11-AA = biological target: T35, O11-AA; assay: two-hybrid library CCmax; settings: mean of both orientations
T35 chain: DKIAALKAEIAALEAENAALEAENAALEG

O14-AA = biological target: T36, O14-AA; assay: two-hybrid library CCmax; settings: mean of both orientations
T36 chain: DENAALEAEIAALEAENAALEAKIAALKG

4H384-AA = biological target: T37, 4H384-AA; assay: two-hybrid library CCmax; settings: mean of both orientations
T37 chain: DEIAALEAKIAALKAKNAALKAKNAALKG

4H_BCR = biological target: T38, 4H_BCR; assay: two-hybrid library CCmax
T38 chain: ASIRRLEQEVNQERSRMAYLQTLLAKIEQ

4H3590-AA = biological target: T39, 4H3590-AA; assay: two-hybrid library CCmax; settings: mean of both orientations
T39 chain: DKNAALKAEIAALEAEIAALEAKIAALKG

4H4038-AA = biological target: T40, 4H4038-AA; assay: two-hybrid library CCmax; settings: mean of both orientations
T40 chain: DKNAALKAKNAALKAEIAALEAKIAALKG

GCN2_T = assay: two-hybrid library CCmax
4H510-AA = biological target: T41, 4H510-AA; assay: two-hybrid library CCmax; settings: mean of both orientations
T41 chain: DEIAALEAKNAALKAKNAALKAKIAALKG

4H_APH = biological target: T42, 4H_APH; assay: two-hybrid library CCmax
T42 chain: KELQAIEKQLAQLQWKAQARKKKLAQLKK

4H3587-AA = biological target: T43, 4H3587-AA; assay: two-hybrid library CCmax
T43 chain: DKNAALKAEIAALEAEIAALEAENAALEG

O13-AA = biological target: T44, O13-AA; assay: two-hybrid library CCmax; settings: mean of both orientations
T44 chain: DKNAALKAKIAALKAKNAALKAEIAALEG

P9SHb = biological target: T45, P9SHb; assay: two-hybrid library CCNG1
T45 chain: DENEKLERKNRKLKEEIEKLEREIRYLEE

P9A = biological target: T46, P9A; assay: two-hybrid library CCNG1
T46 chain: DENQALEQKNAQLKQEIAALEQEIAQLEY

Chain of 4H_GCN4 (chain, as listed by the source): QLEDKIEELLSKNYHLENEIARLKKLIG

B1: 4H2915-bH (peptide)
chain: DKIQELKKKIEELKRKIWELEKENQELER
Question: With B1 as the binder, how does the interaction score (4H492-bH) read?
Answer: -1.59

Question: And the interaction score (4H3057-bH)?
Answer: -0.637

Question: And the interaction score (4H741-bH)?
Answer: -0.324

Question: What about the interaction score (4H3277-bH) of the same binder?
Answer: -1.15

Question: What about the interaction score (4H40-bH) of the same binder?
Answer: -1.4

Question: And the interaction score (4H2915-bH)?
Answer: 0.772

Question: What about the interaction score (4H477-bH) of the same binder?
Answer: -2.15

Question: What about the interaction score (4H319-bH) of the same binder?
Answer: -1.33

Question: What about the interaction score (4H348-bH) of the same binder?
Answer: -0.507

B2: 4H2839-bN (peptide)
chain: DKIQQLKQKIQELEQENQELEWKNQELEQ
Question: Which interaction score (4H2915-bN) does the source give for B2 here?
Answer: 0.377

Question: And the interaction score (4H348-bN)?
Answer: -0.511

Question: And the interaction score (4H2839-bN)?
Answer: -0.536

Question: And the interaction score (4H492-bN)?
Answer: -0.542

Question: What about the interaction score (4H741-bN) of the same binder?
Answer: -1.58

Question: And the interaction score (4H477-bN)?
Answer: -1.55

Question: What about the interaction score (4H3057-bN) of the same binder?
Answer: -0.124

Question: What about the interaction score (4H3277-bN) of the same binder?
Answer: -0.558

Question: What about the interaction score (4H40-bN) of the same binder?
Answer: -0.765

Question: What about the interaction score (4H319-bN) of the same binder?
Answer: 1.51

B3: 4H2726-AA (peptide)
chain: DKIAALKAENAALEAKIAALEAKIAALKG
Question: What does the source list for B3?
Answer: interaction score (4H3605-AA): -0.283; interaction score (4H2726-AA): 1.36; interaction score (4H3922-AA): -1.41; interaction score (4H3625-AA): -0.165; interaction score (4H2935-AA): -1.45; interaction score (4H4033-AA): 2.08; interaction score (4H3664-AA): -1.05; interaction score (4H662-AA): -0.732; interaction score (4H481-AA): 1.94; interaction score (4H55-AA): -1.14; interaction score (4H369-AA): 1.68; interaction score (4H327-AA): 0.992

B4: 4H3587-AA (peptide)
chain: DKNAALKAEIAALEAEIAALEAENAALEG
Question: How did the interaction score (4H451-AA) turn out when B4 was run?
Answer: -1.79

Question: And the interaction score (4H43-AA)?
Answer: -0.335

Question: What about the interaction score (4H_GCN4) of the same binder?
Answer: -1.87

Question: What about the interaction score (4H3625-AA) of the same binder?
Answer: -0.634

Question: And the interaction score (4H3905-AA)?
Answer: -0.0465

Question: What about the interaction score (O11-AA) of the same binder?
Answer: -1.13

Question: What about the interaction score (O14-AA) of the same binder?
Answer: -1.35

Question: And the interaction score (4H384-AA)?
Answer: 1.5

Question: And the interaction score (4H_BCR)?
Answer: -2.15

Question: And the interaction score (4H3590-AA)?
Answer: -0.934

Question: What about the interaction score (4H4038-AA) of the same binder?
Answer: -1.05

Question: And the interaction score (GCN2_T)?
Answer: -2.29

Question: What about the interaction score (4H510-AA) of the same binder?
Answer: -0.509

Question: And the interaction score (4H_APH)?
Answer: -1.77

Question: And the interaction score (4H3587-AA)?
Answer: -2.04

Question: And the interaction score (O13-AA)?
Answer: 0.274

B5: P9SHb (peptide)
chain: DENEKLERKNRKLKEEIEKLEREIRYLEE
Question: B5 was tested. Which interaction score (P9SHb) did it give?
Answer: -0.553

B6: P9A (peptide)
chain: DENQALEQKNAQLKQEIAALEQEIAQLEY
Question: Which interaction score (P9A) does the source give for B6 here?
Answer: -1.28
